One assay addresses T1, P8mSN.
T1 chain: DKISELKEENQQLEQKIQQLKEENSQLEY
Briefly: two-hybrid library CCNG1.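 Also: natural log of median RNA to DNA barcode read ratio; higher means stronger binding.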

The target in a further assay is T2, P9mSN.
T2 chain: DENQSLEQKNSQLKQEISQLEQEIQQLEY
Briefly: two-hybrid library CCNG1.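 Also: natural log of median RNA to DNA barcode read ratio; higher means stronger binding.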

The next assay deals with T3, P7mSN.
T3 chain: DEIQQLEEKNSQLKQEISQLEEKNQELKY
Briefly: two-hybrid library CCNG1.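 Also: natural log of median RNA to DNA barcode read ratio; higher means stronger binding.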

A further assay has as its target T4, O8-bN.
T4 chain: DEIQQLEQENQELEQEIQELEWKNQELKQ
Briefly: two-hybrid library CCNG1.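 Also: natural log of median RNA to DNA barcode read ratio; higher means stronger binding.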

Another assay has as its target T5, O6-bN.
T5 chain: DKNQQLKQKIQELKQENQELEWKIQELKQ
Briefly: two-hybrid library CCNG1.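 Also: natural log of median RNA to DNA barcode read ratio; higher means stronger binding.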

Another assay addresses T6, O7-bN.
T6 chain: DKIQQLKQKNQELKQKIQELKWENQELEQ
In words: two-hybrid library CCNG1.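 Also: natural log of median RNA to DNA barcode read ratio; higher means stronger binding.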

A further assay deals with T7, O16-bN.
T7 chain: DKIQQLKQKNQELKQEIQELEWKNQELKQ
Briefly: two-hybrid library CCNG1.

The next assay deals with T8, O2-bN.
T8 chain: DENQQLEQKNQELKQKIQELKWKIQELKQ
In words: two-hybrid library CCNG1.

A further assay addresses T9, O9-bN.
T9 chain: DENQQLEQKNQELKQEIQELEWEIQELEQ
In words: two-hybrid library CCNG1.

The next assay has as its target T10, O5-bN.
T10 chain: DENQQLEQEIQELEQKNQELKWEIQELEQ
In words: two-hybrid library CCNG1.

A further assay has as its target T11, O3-bN.
T11 chain: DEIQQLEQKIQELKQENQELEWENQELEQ
In words: two-hybrid library CCNG1.

The next assay concerns the target T12, O4-bN.
T12 chain: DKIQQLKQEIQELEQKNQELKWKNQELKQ
In words: two-hybrid library CCNG1.

Another assay has as its target T13, P8A-bH.
T13 chain: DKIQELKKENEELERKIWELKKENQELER
Briefly: two-hybrid library CCNG1.

The next assay has as its target T14, P9A-bH.
T14 chain: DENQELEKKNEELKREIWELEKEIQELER
Briefly: two-hybrid library CCNG1.

A further assay has as its target T15, P7A-bH.
T15 chain: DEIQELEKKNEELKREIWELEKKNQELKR
Briefly: two-hybrid library CCNG1.

The target of the next assay is T16, 4H331-bN.
T16 chain: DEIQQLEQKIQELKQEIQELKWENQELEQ
Briefly: two-hybrid library CCNG1.

Another assay deals with T17, 4H3189-bN.
T17 chain: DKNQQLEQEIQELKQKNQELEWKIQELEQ
In words: two-hybrid library CCNG1.

The next assay concerns the target T18, 4H3606-bN.
T18 chain: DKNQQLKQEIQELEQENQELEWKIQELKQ
Briefly: two-hybrid library CCNG1.

Another assay addresses T19, 4H953-bN.
T19 chain: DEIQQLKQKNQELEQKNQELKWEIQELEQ
In words: two-hybrid library CCNG1.

A further assay has as its target T20, 4H3782-bN.
T20 chain: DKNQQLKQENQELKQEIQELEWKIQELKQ
In words: two-hybrid library CCNG1.

A further assay concerns the target T21, 4H4001-bN.
T21 chain: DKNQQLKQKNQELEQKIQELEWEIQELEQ
In words: two-hybrid library CCNG1.

The next assay deals with T22, 4H797-bN.
T22 chain: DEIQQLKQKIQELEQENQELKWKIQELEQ
In words: two-hybrid library CCNG1.

For the next assay, the target named is T23, 4H918-bN.
T23 chain: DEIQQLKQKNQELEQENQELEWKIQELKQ
Briefly: two-hybrid library CCNG1.

The next assay has as its target T24, 4H883-bN.
T24 chain: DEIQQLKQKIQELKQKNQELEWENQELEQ
Briefly: two-hybrid library CCNG1.

The target of the next assay is T25, 4H370-bN.
T25 chain: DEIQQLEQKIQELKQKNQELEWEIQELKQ
Briefly: two-hybrid library CCNG1.

In another assay the target is T26, 4H687-bN.
T26 chain: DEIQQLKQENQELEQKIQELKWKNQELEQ
Briefly: two-hybrid library CCNG1.

For another assay, the target named is T27, 4H568-bN.
T27 chain: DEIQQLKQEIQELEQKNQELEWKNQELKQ
Briefly: two-hybrid library CCNG1.

The next assay has as its target T28, 4H72-bN.
T28 chain: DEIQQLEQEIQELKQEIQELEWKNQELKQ
In words: two-hybrid library CCNG1.

The target in another assay is T29, 4H462-bN.
T29 chain: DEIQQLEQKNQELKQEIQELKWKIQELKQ
Briefly: two-hybrid library CCNG1.

A further assay concerns the target T30, 4H3843-bN.
T30 chain: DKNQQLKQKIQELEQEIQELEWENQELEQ
In words: two-hybrid library CCNG1.

A further assay addresses T31, 4H967-bN.
T31 chain: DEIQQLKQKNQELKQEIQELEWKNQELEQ
Briefly: two-hybrid library CCNG1.

In another assay the target is T32, 4H2697-bN.
T32 chain: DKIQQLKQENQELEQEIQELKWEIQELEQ
In words: two-hybrid library CCNG1.

Another assay concerns the target T33, 4H607-bN.
T33 chain: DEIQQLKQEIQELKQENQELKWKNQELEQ
Briefly: two-hybrid library CCNG1.

For the next assay, the target named is T34, P8A-bS.
T34 chain: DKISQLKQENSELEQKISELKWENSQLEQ
In words: two-hybrid library CCNG1.

The next assay concerns the target T35, P9A-bS.
T35 chain: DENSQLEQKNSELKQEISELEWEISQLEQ
Briefly: two-hybrid library CCNG1.

For the next assay, the target named is T36, P9-AA.
T36 chain: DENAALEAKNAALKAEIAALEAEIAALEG
In words: two-hybrid library CCmax. The settings on record: mean of both orientations.

Another assay addresses T37, O7-AA.
T37 chain: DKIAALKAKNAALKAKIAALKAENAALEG
Briefly: two-hybrid library CCmax. The settings on record: mean of both orientations.

A further assay addresses T38, O4-AA.
T38 chain: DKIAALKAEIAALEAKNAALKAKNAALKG
In words: two-hybrid library CCmax.

The target in a further assay is T39, O5-AA.
T39 chain: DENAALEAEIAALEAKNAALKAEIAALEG
In words: two-hybrid library CCmax. The conditions noted are these: mean of both orientations.

For the next assay, the target named is T40, O8-AA.
T40 chain: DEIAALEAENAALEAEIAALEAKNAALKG
In words: two-hybrid library CCmax. The conditions noted are these: mean of both orientations.

The target of a further assay is T41, P10-AA.
T41 chain: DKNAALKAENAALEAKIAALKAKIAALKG
In words: two-hybrid library CCmax. The conditions noted are these: mean of both orientations.

A further assay addresses T42, O6-AA.
T42 chain: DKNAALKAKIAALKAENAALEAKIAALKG
In words: two-hybrid library CCmax. The settings on record: mean of both orientations.

In the case of DEIQQLEEKNSQLKQEISQLEEKNQELKY [P7mSN], the results for the interaction score in the assay with P8mSN, with P9mSN and with P7mSN were 0.927, -0.424 and -0.219, respectively.
With DKIQQLKQKNQELKQEIQELEWKNQELKQ [O16-bN], the interaction score with O8-bN was 0.95; with O6-bN, 0.821; in the assay with O7-bN, -0.333; in the assay with O16-bN, 0.145; in the assay with O2-bN it was -0.944; with O9-bN, -0.976. For the same molecule, the interaction score was -2.84 with O5-bN, -0.113 with O3-bN and -0.0984 with O4-bN.
Consider DEIQELEKKNEELKREIWELEKKNQELKR [P7A-bH], for which the interaction score was 1.64 with P8A-bH, -0.442 with P9A-bH and -0.0377 with P7A-bH.
DKIQQLKQENQELEQEIQELKWEIQELEQ [4H2697-bN]: the interaction score is -0.941 with 4H331-bN; -1.43 with 4H3189-bN; -0.924 in the assay with 4H3606-bN; -0.808 with 4H953-bN; -1.03 in the assay with 4H3782-bN; -0.819 with 4H4001-bN. The interaction score is -0.83 with 4H797-bN; -1.97 in the assay with 4H918-bN; -0.654 with 4H883-bN; -0.695 with 4H370-bN; -1.12 in the assay with 4H687-bN; -1.07 with 4H568-bN. Besides, the interaction score in the assay with 4H72-bN was -1.14; with 4H462-bN, 1.31; with 4H3843-bN it was -0.916; with 4H967-bN, -1.15; in the assay with 4H2697-bN, -0.736; with 4H607-bN it was -1.63.
Turning to DKISQLKQENSELEQKISELKWENSQLEQ [P8A-bS], the interaction score was -0.428 with P8A-bS and -0.26 with P9A-bS.
As to DKIAALKAEIAALEAKNAALKAKNAALKG [O4-AA], the interaction score in the assay with P9-AA was -1.16; with O7-AA it was -1.28; with O4-AA it was -1.05; with O5-AA it was -0.641; with O8-AA it was -0.637; with P10-AA, -0.869. For the same molecule, the interaction score with O6-AA was -0.0762.

Source of the values: PMC10397247.
